Experimental data: patent US20250163127A1
pEC50: −log10 of the molar value. Read-outs that look alike come from different tables or passages of the source. Blank lines part the entries; values can stand above or below the substance they belong to.

Assays:
[1] = biological target: T1, CD96 (human) (UniProt P40200); assay: flow cytometry, transfected HEK293; secondary reagent alone
T1 sequence: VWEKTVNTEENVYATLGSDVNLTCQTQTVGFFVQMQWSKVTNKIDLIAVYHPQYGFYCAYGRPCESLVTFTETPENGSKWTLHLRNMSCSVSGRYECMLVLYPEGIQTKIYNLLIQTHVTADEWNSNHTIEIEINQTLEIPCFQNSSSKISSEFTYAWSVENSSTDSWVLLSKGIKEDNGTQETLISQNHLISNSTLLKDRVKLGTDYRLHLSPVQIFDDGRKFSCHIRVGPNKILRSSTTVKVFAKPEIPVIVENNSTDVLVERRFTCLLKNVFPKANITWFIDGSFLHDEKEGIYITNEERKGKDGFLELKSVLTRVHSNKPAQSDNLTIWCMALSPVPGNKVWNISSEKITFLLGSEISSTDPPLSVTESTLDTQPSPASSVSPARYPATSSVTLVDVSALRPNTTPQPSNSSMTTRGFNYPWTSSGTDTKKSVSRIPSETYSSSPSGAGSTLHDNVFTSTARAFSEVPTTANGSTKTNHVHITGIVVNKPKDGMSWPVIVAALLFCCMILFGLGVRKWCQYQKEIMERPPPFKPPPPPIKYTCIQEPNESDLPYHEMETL

[2] = biological target: CD112R (human) (UniProt Q6DKI7); assay: as above
[3] = biological target: T2, CD226 (human) (UniProt Q15762); assay: as above
T2 sequence: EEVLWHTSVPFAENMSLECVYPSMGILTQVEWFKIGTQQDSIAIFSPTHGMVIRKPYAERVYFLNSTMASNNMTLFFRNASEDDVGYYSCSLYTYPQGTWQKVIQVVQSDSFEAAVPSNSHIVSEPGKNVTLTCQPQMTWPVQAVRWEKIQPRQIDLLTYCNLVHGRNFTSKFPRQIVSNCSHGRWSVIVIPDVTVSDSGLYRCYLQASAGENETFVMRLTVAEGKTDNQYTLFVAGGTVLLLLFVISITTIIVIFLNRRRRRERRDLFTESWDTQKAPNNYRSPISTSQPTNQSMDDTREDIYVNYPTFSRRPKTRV

[4] = biological target: T3, TIGIT (human) (UniProt Q495A1); assay: as above
T3 sequence: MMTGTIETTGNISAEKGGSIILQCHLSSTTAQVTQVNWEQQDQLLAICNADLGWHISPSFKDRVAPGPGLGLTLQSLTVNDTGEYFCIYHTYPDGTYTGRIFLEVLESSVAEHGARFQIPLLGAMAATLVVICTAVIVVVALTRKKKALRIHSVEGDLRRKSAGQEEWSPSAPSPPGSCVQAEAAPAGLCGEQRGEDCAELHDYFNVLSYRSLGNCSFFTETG

[5] = biological target: CD2 (human) (UniProt P06729)
Target sequence in this assay (P06729 25-351): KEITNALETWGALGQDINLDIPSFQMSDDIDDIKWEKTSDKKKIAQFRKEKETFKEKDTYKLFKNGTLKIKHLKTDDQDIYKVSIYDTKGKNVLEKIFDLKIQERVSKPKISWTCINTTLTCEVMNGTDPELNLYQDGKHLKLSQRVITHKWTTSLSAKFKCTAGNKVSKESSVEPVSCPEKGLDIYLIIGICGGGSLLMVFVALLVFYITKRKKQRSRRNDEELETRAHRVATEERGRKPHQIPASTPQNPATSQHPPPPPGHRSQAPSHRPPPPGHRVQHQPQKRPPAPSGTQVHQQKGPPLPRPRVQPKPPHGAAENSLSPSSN

[6] = biological target: CD2 (human) (UniProt P06729); assay: flow cytometry, CHO-CD2 cells
Target sequence in this assay (P06729 25-351 limits assumed): as the sequence (P06729 25-351) above

[7] = biological target: CTLA-4 (human); assay: flow cytometry on HEK293 cells transfected with CTLA4; Fc control
[8] = biological target: PD-L1 (human); assay: flow cytometry on HEK293 cells transfected with PD-L1; Fc control
[9] = biological target: CD28 (human) (UniProt P10747); assay: flow cytometry on HEK293 cells transfected with CD28; Fc control
[10] = biological target: CD28 (human) (UniProt P10747); assay: flow cytometry, transfected cells
[11] = biological target: CD28 (human) (UniProt P10747); assay: flow cytometry, transfected cells; remark: listed apart in the source
[12] = biological target: CTLA-4 (human); assay: flow cytometry on HEK293 cells transfected with CTLA4
Target sequence in this assay (chain, as listed by the source): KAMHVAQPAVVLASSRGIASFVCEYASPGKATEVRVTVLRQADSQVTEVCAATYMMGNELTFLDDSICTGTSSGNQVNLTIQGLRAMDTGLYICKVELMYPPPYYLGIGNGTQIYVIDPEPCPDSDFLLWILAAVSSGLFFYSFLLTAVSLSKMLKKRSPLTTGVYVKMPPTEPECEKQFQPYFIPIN

[13] = biological target: CD28 (human) (UniProt P10747); assay: flow cytometry on HEK293 cells transfected with CD28
[14] = biological target: PD-L1 (human); assay: flow cytometry on HEK293 cells transfected with PD-L1
Target sequence in this assay (chain, as listed by the source): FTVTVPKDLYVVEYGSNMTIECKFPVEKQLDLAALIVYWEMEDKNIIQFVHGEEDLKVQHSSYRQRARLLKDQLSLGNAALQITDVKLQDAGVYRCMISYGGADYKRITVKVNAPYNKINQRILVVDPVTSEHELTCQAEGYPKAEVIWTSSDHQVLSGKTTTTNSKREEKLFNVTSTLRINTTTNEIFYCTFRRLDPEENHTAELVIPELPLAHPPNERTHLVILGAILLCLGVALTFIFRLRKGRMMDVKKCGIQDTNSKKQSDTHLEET

[15] = biological target: ICOS (Homo sapiens (Human)) (UniProt Q9Y6W8); assay: flow cytometry, transfected cells
[16] = biological target: CTLA-4 (Homo sapiens (Human)) (UniProt P16410); assay: flow cytometry, transfected cells
[17] = biological target: ICOS (Homo sapiens (Human)) (UniProt Q9Y6W8); assay: flow cytometry, transfected cells; remark: listed apart in the source
[18] = biological target: CTLA-4 (Homo sapiens (Human)) (UniProt P16410); assay: flow cytometry, transfected cells; remark: listed apart in the source
[19] = biological target: ICOS (Homo sapiens (Human)) (UniProt Q9Y6W8); assay: flow cytometry, transfected cells; remark: listed apart in the source
[20] = biological target: CTLA-4 (Homo sapiens (Human)) (UniProt P16410); assay: flow cytometry, transfected cells; remark: listed apart in the source
[21] = biological target: human PD-1 (human) (UniProt Q15116)
[22] = biological target: PD-1-Fc (human) (UniProt Q15116); assay: ForteBio Octet, PD-1 on anti-human capture sensor, 100 nM
Sequence of PD-1-Fc (human) (Q15116 25-167 limits assumed): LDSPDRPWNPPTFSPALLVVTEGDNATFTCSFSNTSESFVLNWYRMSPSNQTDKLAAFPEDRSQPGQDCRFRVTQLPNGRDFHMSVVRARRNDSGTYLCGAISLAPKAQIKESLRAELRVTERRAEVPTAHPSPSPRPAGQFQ

Sequence of Wildtype ICOSL ECD-Fc (Fc fusion) (chain): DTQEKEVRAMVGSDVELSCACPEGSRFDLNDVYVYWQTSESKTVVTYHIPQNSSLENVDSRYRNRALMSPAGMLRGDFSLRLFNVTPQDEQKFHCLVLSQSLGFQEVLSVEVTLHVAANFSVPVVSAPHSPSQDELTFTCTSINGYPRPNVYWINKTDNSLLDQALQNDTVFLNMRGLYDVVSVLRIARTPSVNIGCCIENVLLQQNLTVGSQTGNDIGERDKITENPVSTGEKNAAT
Sequence of ICOS (Homo sapiens (Human)) (Q9Y6W8 21-199 limits assumed): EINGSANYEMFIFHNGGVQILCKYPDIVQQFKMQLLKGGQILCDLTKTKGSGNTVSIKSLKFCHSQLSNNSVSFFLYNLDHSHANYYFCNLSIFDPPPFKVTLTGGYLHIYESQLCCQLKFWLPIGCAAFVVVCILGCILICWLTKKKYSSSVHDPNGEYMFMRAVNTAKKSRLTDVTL
Sequence of WT CD80 IgV-Fc (inert) (Fc fusion) (chain): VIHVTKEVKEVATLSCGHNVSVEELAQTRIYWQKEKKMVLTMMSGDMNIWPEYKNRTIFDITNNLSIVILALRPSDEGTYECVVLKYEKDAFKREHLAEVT
Sequence of human PD-1 (human) (Q15116 25-288): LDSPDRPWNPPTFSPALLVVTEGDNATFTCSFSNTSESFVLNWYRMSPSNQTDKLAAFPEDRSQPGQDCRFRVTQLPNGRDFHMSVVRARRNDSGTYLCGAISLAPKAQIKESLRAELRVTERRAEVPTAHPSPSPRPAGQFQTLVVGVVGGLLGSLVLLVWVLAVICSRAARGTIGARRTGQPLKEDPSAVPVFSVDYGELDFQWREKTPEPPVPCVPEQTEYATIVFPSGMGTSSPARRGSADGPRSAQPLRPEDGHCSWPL

Substance: Fc only
MFI at 66.6 nM [7]: 5960 MFI
MFI at 22.2 nM [8]: 4740 MFI
MFI at 66.6 nM [9]: 2590 MFI

Substance: ICOSL ECD-Fc N52Q/N84Q/N168Q (Fc fusion)
MFI [11]: 1580 MFI

Substance: WT CD80 IgV-Fc (inert) (Fc fusion)
MFI at 66.6 nM [12]: 20700 MFI
MFI at 66.6 nM [13]: 1620 MFI
MFI at 22.2 nM [14]: 1770 MFI

Substance: variant PD-L2 IgV I13V/H15Q/R76G/I85F Fc fusion
IFN gamma levels pg/mL (MLR) [21]: 1530 pg/mL
Fortebio Response Units (Response Units) [22]: -0.04

More lines, now with the values ahead:

MFI at 20 nM [1]: 1060
MFI at 20 nM [2]: 1010
MFI at 20 nM [3]: 1010
MFI at 20 nM [4]: 1140
Substance: Anti-huFc PE (tool reagent)

100 nM IFN-gamma (pg/mL), SEB assay [5]: 9660 pg/mL
pEC50 [6]: 9.70
Substance: CD58 (WT) 3650-Fc (Fc fusion)

MFI [10]: 4400 MFI
Substance: ICOSL ECD-Fc N30D/K42E/N52S/H115R/F172S/N194D (Fc fusion)

MFI [15]: 83800 MFI
MFI [16]: 4770 MFI
MFI [17]: 36600 MFI
MFI [18]: 3800 MFI
MFI [19]: 212000 MFI
MFI [20]: 330000 MFI
Substance: Wildtype ICOSL ECD-Fc (Fc fusion)
